test system: Escherichia coli TOP10; assay: shrunken log2 fold change of peptide-encoding DNA abundance (4.5 h post-induction vs induction); higher = less antimicrobial activity (less host growth inhibition); details: time post-induction: 4.5 h; library: site-saturation at positions 5, 18, 19, 20
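Note: peptides expressed intracellularly from a pBAD plasmid library in pooled LB shake-flask culture, induced with 0.3% L-arabinose, DNA abundance read by NGS, three biological replicates, DESeq2 with apeglm shrinkage.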

| Sequence | shrunken log2 fold change |
| --- | --- |
| RRIRDRPPRLPRPRPRPFDPPRP | -0.119 |
| RRIRKRPPRLPRPRPRPMDMPRP | 0.15 |
| RRIRNRPPRLPRPRPRPHEEPRP | -0.0188 |
| RRIRFRPPRLPRPRPRPLMHPRP | -0.246 |
| RRIRIRPPRLPRPRPRPHIDPRP | -0.0031 |
| RRIRSRPPRLPRPRPRPFLGPRP | -0.186 |
| RRIRWRPPRLPRPRPRPPLFPRP | 0.42 |
| RRIRDRPPRLPRPRPRPWWEPRP | 0.186 |
| RRIRHRPPRLPRPRPRPFIDPRP | -0.121 |
| RRIRNRPPRLPRPRPRPNWSPRP | -0.106 |
| RRIRYRPPRLPRPRPRPTERPRP | -0.532 |
| RRIRWRPPRLPRPRPRPVEAPRP | 0.249 |
| RRIRARPPRLPRPRPRPRVLPRP | 0.189 |
| RRIRHRPPRLPRPRPRPKTFPRP | -0.45 |
| RRIRQRPPRLPRPRPRPNSHPRP | -0.191 |
| RRIRNRPPRLPRPRPRPWDGPRP | 0.185 |
| RRIRFRPPRLPRPRPRPFFTPRP | -0.227 |
| RRIRERPPRLPRPRPRPWRKPRP | -0.173 |
| RRIRNRPPRLPRPRPRPLYFPRP | -0.477 |
| RRIRFRPPRLPRPRPRPYGWPRP | -0.0451 |
| RRIRNRPPRLPRPRPRPFIQPRP | -0.737 |
| RRIRWRPPRLPRPRPRPRDPPRP | 0.241 |
| RRIRPRPPRLPRPRPRPEHFPRP | 0.134 |
| RRIRHRPPRLPRPRPRPWCSPRP | -0.348 |
| RRIRYRPPRLPRPRPRPGFSPRP | -0.0944 |

| Sequence | shrunken log2 fold change |
| --- | --- |
| RRIRFRPPRLPRPRPRPCDTPRP | -0.09 |
| RRIRERPPRLPRPRPRPYFTPRP | -0.971 |
| RRIRWRPPRLPRPRPRPNWEPRP | -0.00663 |
| RRIRKRPPRLPRPRPRPRYLPRP | -0.179 |
| RRIRWRPPRLPRPRPRPALMPRP | 0.159 |
| RRIRMRPPRLPRPRPRPTNDPRP | 0.231 |
| RRIRKRPPRLPRPRPRPANFPRP | -0.0479 |
| RRIRWRPPRLPRPRPRPIHSPRP | -0.0401 |
| RRIRCRPPRLPRPRPRPVTMPRP | -0.49 |
| RRIRWRPPRLPRPRPRPVWGPRP | 0.131 |
| RRIRRRPPRLPRPRPRPWMSPRP | 0.118 |
| RRIRDRPPRLPRPRPRPAHMPRP | -0.125 |
| RRIRERPPRLPRPRPRPICLPRP | -0.0493 |
| RRIRFRPPRLPRPRPRPNLQPRP | -0.264 |
| RRIRFRPPRLPRPRPRPFYTPRP | -0.89 |
| RRIRRRPPRLPRPRPRPYIEPRP | -0.338 |
| RRIRTRPPRLPRPRPRPMYGPRP | -0.000687 |
| RRIRGRPPRLPRPRPRPQNYPRP | -0.153 |
| RRIRWRPPRLPRPRPRPMKFPRP | -0.278 |
| RRIRIRPPRLPRPRPRPVEEPRP | -0.0729 |
| RRIRFRPPRLPRPRPRPLPYPRP | -0.101 |
| RRIRSRPPRLPRPRPRPHLGPRP | -0.385 |
| RRIRDRPPRLPRPRPRPPSWPRP | 0.102 |
| RRIRHRPPRLPRPRPRPSAWPRP | 0.373 |
| RRIRARPPRLPRPRPRPQTKPRP | 0.135 |

| Sequence | shrunken log2 fold change |
| --- | --- |
| RRIRERPPRLPRPRPRPEGGPRP | 0.361 |
| RRIRTRPPRLPRPRPRPTFPPRP | -0.0187 |
| RRIRDRPPRLPRPRPRPDNNPRP | -0.0748 |
| RRIRDRPPRLPRPRPRPRVEPRP | 0.137 |
| RRIRERPPRLPRPRPRPYCGPRP | -0.109 |
| RRIRKRPPRLPRPRPRPYLDPRP | -0.0998 |
| RRIRQRPPRLPRPRPRPVGSPRP | 0.317 |
| RRIRPRPPRLPRPRPRPWSLPRP | -0.0559 |
| RRIRRRPPRLPRPRPRPFCDPRP | -0.0358 |
| RRIRWRPPRLPRPRPRPQTDPRP | 0.236 |
| RRIRHRPPRLPRPRPRPRYEPRP | -0.0765 |
| RRIRRRPPRLPRPRPRPRYQPRP | 0.0511 |
| RRIRMRPPRLPRPRPRPVRNPRP | 0.0163 |
| RRIRTRPPRLPRPRPRPFLPPRP | -0.279 |
| RRIRKRPPRLPRPRPRPTTRPRP | 0.717 |
| RRIRVRPPRLPRPRPRPVKDPRP | 0.0828 |
| RRIRERPPRLPRPRPRPINMPRP | -0.261 |
| RRIRDRPPRLPRPRPRPYMMPRP | -0.297 |
| RRIRQRPPRLPRPRPRPRTMPRP | -0.232 |
| RRIRCRPPRLPRPRPRPCGDPRP | 0.0996 |
| RRIRWRPPRLPRPRPRPYHHPRP | -1.02 |
| RRIRTRPPRLPRPRPRPFNFPRP | -0.617 |
| RRIRNRPPRLPRPRPRPNYVPRP | -0.0488 |
| RRIRYRPPRLPRPRPRPNSGPRP | -0.01 |
| RRIRHRPPRLPRPRPRPTYTPRP | -0.00607 |

| Sequence | shrunken log2 fold change |
| --- | --- |
| RRIRHRPPRLPRPRPRPDFNPRP | -0.607 |
| RRIRTRPPRLPRPRPRPWGKPRP | 0.201 |
| RRIRRRPPRLPRPRPRPMWNPRP | 0.00386 |
| RRIRPRPPRLPRPRPRPVRKPRP | 0.73 |
| RRIRSRPPRLPRPRPRPRFCPRP | 0.23 |
| RRIRSRPPRLPRPRPRPENYPRP | -0.127 |
| RRIRGRPPRLPRPRPRPWIWPRP | 0.236 |
| RRIRSRPPRLPRPRPRPMHAPRP | 0.562 |
| RRIRRRPPRLPRPRPRPHWGPRP | 0.291 |
| RRIRYRPPRLPRPRPRPYSHPRP | -0.958 |
| RRIRWRPPRLPRPRPRPCPKPRP | -0.0941 |
| RRIRKRPPRLPRPRPRPYELPRP | -0.0181 |
| RRIRSRPPRLPRPRPRPMARPRP | 0.101 |
| RRIRPRPPRLPRPRPRPSMGPRP | -0.156 |
| RRIRPRPPRLPRPRPRPFHYPRP | -1.27 |
| RRIRVRPPRLPRPRPRPVIKPRP | -0.138 |
| RRIRFRPPRLPRPRPRPLIHPRP | -0.891 |
| RRIRYRPPRLPRPRPRPNYDPRP | -0.746 |
| RRIRRRPPRLPRPRPRPMFWPRP | 0.506 |
| RRIRERPPRLPRPRPRPAKMPRP | -0.194 |
| RRIRMRPPRLPRPRPRPYGAPRP | -0.105 |
| RRIRARPPRLPRPRPRPCDDPRP | -0.0166 |
| RRIRRRPPRLPRPRPRPSLGPRP | 0.261 |
| RRIRNRPPRLPRPRPRPAVCPRP | 0.158 |
| RRIRDRPPRLPRPRPRPGFFPRP | 0.345 |

| Sequence | shrunken log2 fold change |
| --- | --- |
| RRIRIRPPRLPRPRPRPRKSPRP | -0.169 |
| RRIRDRPPRLPRPRPRPFAAPRP | 1.62 |
| RRIRGRPPRLPRPRPRPQGCPRP | 0.394 |
| RRIRCRPPRLPRPRPRPQHCPRP | -0.287 |
| RRIRERPPRLPRPRPRPYDPPRP | -0.0709 |
| RRIRDRPPRLPRPRPRPDKIPRP | 0.231 |
| RRIRPRPPRLPRPRPRPWAQPRP | -0.00768 |
| RRIRRRPPRLPRPRPRPVWNPRP | 0.0425 |
| RRIRKRPPRLPRPRPRPVSPPRP | 0.286 |
| RRIRVRPPRLPRPRPRPATWPRP | 0.218 |
| RRIRDRPPRLPRPRPRPLEEPRP | 0.0347 |
| RRIRFRPPRLPRPRPRPPCYPRP | -0.227 |
| RRIRARPPRLPRPRPRPPDNPRP | 0.576 |
| RRIRKRPPRLPRPRPRPHEWPRP | 0.3 |
| RRIRSRPPRLPRPRPRPGAQPRP | 0.68 |
| RRIRERPPRLPRPRPRPWEHPRP | -0.221 |
| RRIRRRPPRLPRPRPRPTAAPRP | 1.21 |
| RRIRTRPPRLPRPRPRPFQDPRP | 0.00739 |
| RRIRYRPPRLPRPRPRPGANPRP | -0.0888 |
| RRIRFRPPRLPRPRPRPTPMPRP | 0.178 |
| RRIRARPPRLPRPRPRPDIFPRP | 0.148 |
| RRIRCRPPRLPRPRPRPWRDPRP | -0.0798 |
| RRIRLRPPRLPRPRPRPGSGPRP | 0.337 |
| RRIRGRPPRLPRPRPRPPWMPRP | 0.373 |
| RRIRFRPPRLPRPRPRPKMGPRP | -0.122 |

| Sequence | shrunken log2 fold change |
| --- | --- |
| RRIRHRPPRLPRPRPRPSGPPRP | 0.082 |
| RRIRCRPPRLPRPRPRPWKKPRP | -0.0238 |
| RRIRTRPPRLPRPRPRPADEPRP | -0.0108 |
| RRIRFRPPRLPRPRPRPLKYPRP | -0.262 |
| RRIRRRPPRLPRPRPRPTDTPRP | -0.11 |
| RRIRTRPPRLPRPRPRPHAIPRP | 0.103 |
| RRIRHRPPRLPRPRPRPNYTPRP | -0.529 |
| RRIRDRPPRLPRPRPRPMSWPRP | 0.262 |
| RRIRARPPRLPRPRPRPICCPRP | 0.316 |
| RRIRWRPPRLPRPRPRPAYWPRP | 0.473 |
| RRIRWRPPRLPRPRPRPWEWPRP | -0.00895 |
| RRIRFRPPRLPRPRPRPDDHPRP | -0.139 |
| RRIRCRPPRLPRPRPRPGNPPRP | -0.132 |
| RRIRQRPPRLPRPRPRPCLHPRP | -0.0247 |
| RRIRNRPPRLPRPRPRPDASPRP | 0.14 |
| RRIRRRPPRLPRPRPRPCNCPRP | -0.0759 |
| RRIRVRPPRLPRPRPRPRIEPRP | 0.314 |
| RRIRKRPPRLPRPRPRPLLKPRP | 0.00409 |
| RRIRYRPPRLPRPRPRPQWLPRP | -0.0323 |
| RRIRRRPPRLPRPRPRPGEHPRP | 0.291 |
| RRIRIRPPRLPRPRPRPLREPRP | 0.255 |
| RRIRKRPPRLPRPRPRPHCKPRP | -0.397 |
| RRIRCRPPRLPRPRPRPLTRPRP | 0.258 |
| RRIRMRPPRLPRPRPRPVIPPRP | -0.259 |
| RRIRNRPPRLPRPRPRPMALPRP | -0.0652 |
